The values below come from patent US20180111972A1.

The target in assay [1] is mouse PDGFR on NIH/3T3 mouse fibroblasts (mouse) (UniProt P05622). The assay can be described thus: flow cytometry on NIH/3T3 cells, soluble ligand titrated 5 h at 4 C, anti-FLAG-PE. Background: In flow cytometry, cells or beads pass a laser one at a time.
In assay [2] the target is human PDGFR on BJ-5ta human fibroblasts (human) (UniProt P09619). The assay can be described thus: flow cytometry titration of the soluble FLAG-tagged protein on BJ-5ta cells, anti-FLAG detection.
Assay [3] addresses mouse PDGFR on NIH/3T3 mouse fibroblasts (mouse) (UniProt P05622). Kind of assay: flow cytometry on cells, soluble ligand titrated, anti-FLAG-PE.
Assay [4] deals with human PDGFR on BJ-5ta human fibroblasts (human) (UniProt P09619). Described as above.
The target is the same in assay [5]. Kind of assay: flow cytometry on BJ-5ta cells, soluble ligand titrated 5 h at 4 C, anti-FLAG-PE.

Chain of scPDGF, single-chain version of wild-type PDGF-BB, soluble, FLAG and hexahistidine tags (ligand) (chain, part): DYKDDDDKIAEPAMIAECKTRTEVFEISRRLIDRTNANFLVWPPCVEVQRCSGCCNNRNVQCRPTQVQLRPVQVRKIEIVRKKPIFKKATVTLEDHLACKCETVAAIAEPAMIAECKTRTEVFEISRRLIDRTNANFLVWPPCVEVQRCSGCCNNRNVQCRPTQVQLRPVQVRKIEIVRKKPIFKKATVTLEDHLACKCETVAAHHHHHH

As to “scPDGF, single-chain version of wild-type PDGF-BB, soluble, FLAG and hexahistidine tags (ligand)”, the Kd – broadly, the equilibrium constant for the complex coming apart – came out at 2.7 pM in assay [1], 2.5 pM in assay [3], 1.5 pM in assay [4] and 1.5 pM in assay [5]. The EC50 (read off the curve) (commonly the concentration needed to bring the measured effect to its halfway point) in assay [2] was 1 pM.
